The conditions of the data set: Nostoc ellipsosporum, pH 6, 25 °C, GdnHCl, sodium phosphate 20 mM, transition: 2, reversible: yes(90%), whole UniProt chain shown.

The values that follow come from FireProtDB (doi:10.1021/bi201411c).

B1: Cyanovirin-N wild type, P81180 (protein)
chain: LGKFSQTCYNSAIQGSVLTSTCERTNGGYNTSSIDLNSVIENVDGSLKWQPSNFIETCRNTQLAGSSELAAECKTRAQQFVSTKINLDDHIANIDGTLKYE
Consider B1, for which, for the setting “CD”, the denaturant m value is 2 kcal/mol/M and the “denaturant midpoint (higher = more stable)” value is 2.5 M. Moreover, under “fluorescence”, the denaturant m value was determined as 1.9 kcal/mol/M and the “denaturant midpoint (higher = more stable)” value is 2.6 M.
